In US20190263932A1:

What was measured:
[1] = molecular target: recombinant human TrkA protein (human) (UniProt P04629); assay: NGF-blocking ELISA on coated human TrkA, 100 nM btNGF; mAb 5 nM
[2] = molecular target: recombinant human TrkA protein (human) (UniProt P04629); assay: NGF-blocking ELISA on coated human TrkA, 100 nM btNGF; mAb 10 nM
[3] = molecular target: recombinant human TrkA protein (human) (UniProt P04629); assay: NGF-blocking ELISA on coated human TrkA, 100 nM btNGF; mAb 20 nM
[4] = molecular target: recombinant human TrkA protein (human) (UniProt P04629); assay: NGF-blocking ELISA on coated human TrkA, 100 nM btNGF; mAb 2.5 nM
[5] = molecular target: recombinant human TrkA protein (human) (UniProt P04629); assay: NGF-blocking ELISA on coated human TrkA, 100 nM btNGF; mAb 0.02 nM
[6] = molecular target: recombinant human TrkA protein (human) (UniProt P04629); assay: NGF-blocking ELISA on coated human TrkA, 100 nM btNGF; mAb 0.04 nM
[7] = molecular target: recombinant human TrkA protein (human) (UniProt P04629); assay: NGF-blocking ELISA on coated human TrkA, 100 nM btNGF; mAb 0.08 nM
[8] = molecular target: recombinant human TrkA protein (human) (UniProt P04629); assay: NGF-blocking ELISA on coated human TrkA, 100 nM btNGF; mAb 0.16 nM
[9] = molecular target: recombinant human TrkA protein (human) (UniProt P04629); assay: NGF-blocking ELISA on coated human TrkA, 100 nM btNGF; mAb 0.63 nM
[10] = molecular target: recombinant human TrkA protein (human) (UniProt P04629); assay: NGF-blocking ELISA on coated human TrkA, 100 nM btNGF; mAb 1.25 nM
[11] = molecular target: recombinant human TrkA protein (human) (UniProt P04629); assay: NGF-blocking ELISA on coated human TrkA, 100 nM btNGF; mAb 0.31 (printed pM, two-fold series gives nM)
[12] = molecular target: TrkA in rat brain, dorsal root ganglia and skin tissue (rat) (UniProt P35739); assay: cell-based or functional assay
[13] = molecular target: human TrkA receptor expressed in transfected 3T3 fibroblast cells (human) (UniProt P04629); assay: cell-based or functional assay
[14] = molecular target: rat TrkA receptor expressed in transfected HEK293 cells (rat) (UniProt P35739); assay: cell-based or functional assay
Chain of rat TrkA receptor expressed in transfected HEK293 cells (rat) (P35739 33-799): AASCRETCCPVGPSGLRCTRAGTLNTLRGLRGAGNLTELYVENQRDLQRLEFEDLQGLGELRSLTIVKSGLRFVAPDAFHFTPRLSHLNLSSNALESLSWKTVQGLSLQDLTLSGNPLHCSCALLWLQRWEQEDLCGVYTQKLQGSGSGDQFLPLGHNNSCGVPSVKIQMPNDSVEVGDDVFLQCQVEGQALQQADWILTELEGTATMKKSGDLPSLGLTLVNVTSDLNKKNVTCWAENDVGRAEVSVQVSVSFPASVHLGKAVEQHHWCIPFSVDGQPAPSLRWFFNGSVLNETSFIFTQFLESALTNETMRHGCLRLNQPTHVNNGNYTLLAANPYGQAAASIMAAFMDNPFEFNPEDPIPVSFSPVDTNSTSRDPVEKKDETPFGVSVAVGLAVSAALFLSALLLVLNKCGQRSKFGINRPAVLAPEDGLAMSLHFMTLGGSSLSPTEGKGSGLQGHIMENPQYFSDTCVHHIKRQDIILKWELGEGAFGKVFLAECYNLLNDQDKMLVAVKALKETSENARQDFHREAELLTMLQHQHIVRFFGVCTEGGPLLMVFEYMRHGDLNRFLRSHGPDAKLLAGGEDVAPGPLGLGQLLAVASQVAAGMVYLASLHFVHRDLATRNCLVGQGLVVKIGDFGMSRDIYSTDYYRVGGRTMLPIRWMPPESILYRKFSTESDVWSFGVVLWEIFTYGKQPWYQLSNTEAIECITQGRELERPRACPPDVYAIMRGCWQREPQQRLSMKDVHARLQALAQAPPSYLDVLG

Chain of recombinant human TrkA protein (human) (P04629 other isoform, or with tags, fused parts or gaps limits assumed): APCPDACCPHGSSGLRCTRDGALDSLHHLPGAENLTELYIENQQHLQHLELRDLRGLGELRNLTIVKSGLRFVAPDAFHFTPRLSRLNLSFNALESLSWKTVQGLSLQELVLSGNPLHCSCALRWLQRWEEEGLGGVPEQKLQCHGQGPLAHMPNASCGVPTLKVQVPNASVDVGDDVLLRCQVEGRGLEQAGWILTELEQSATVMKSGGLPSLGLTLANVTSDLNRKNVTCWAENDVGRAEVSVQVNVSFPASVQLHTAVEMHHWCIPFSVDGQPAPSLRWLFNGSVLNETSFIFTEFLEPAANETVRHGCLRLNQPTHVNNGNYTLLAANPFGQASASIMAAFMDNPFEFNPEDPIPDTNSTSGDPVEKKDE
Chain of TrkA in rat brain, dorsal root ganglia and skin tissue (rat) (P35739 33-799): as the sequence (P35739 33-799) above
Chain of human TrkA receptor expressed in transfected 3T3 fibroblast cells (human) (P04629 33-796): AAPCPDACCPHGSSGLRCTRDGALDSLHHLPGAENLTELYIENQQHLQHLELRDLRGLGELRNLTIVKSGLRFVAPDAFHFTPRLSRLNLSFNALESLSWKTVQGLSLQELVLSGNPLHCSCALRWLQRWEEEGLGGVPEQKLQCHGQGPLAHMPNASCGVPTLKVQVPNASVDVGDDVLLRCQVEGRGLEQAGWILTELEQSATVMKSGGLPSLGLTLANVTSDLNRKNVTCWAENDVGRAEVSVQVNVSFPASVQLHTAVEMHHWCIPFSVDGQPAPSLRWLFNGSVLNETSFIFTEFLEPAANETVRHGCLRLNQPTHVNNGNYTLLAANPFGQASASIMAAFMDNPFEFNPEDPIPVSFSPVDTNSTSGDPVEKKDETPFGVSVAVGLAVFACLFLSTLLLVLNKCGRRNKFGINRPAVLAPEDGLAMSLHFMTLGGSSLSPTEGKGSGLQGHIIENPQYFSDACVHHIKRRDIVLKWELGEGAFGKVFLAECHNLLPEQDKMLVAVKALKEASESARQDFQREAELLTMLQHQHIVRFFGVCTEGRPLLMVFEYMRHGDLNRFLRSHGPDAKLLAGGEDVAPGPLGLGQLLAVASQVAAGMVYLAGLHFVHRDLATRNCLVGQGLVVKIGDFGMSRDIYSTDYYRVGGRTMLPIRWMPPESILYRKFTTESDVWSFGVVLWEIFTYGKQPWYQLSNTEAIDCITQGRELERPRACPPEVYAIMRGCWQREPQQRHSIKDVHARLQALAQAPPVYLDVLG
Chain of rat β-NGF (P25427 122-241 limits assumed): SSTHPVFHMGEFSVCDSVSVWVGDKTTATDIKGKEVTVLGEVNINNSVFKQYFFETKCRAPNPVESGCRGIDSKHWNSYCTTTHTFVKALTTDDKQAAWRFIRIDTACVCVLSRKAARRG

| Absorbance 450 nm [1] | Absorbance 450 nm [2] | Absorbance 450 nm [3] | Absorbance 450 nm [4] | Absorbance 450 nm [5] | Absorbance 450 nm [6] | Absorbance 450 nm [7] | Absorbance 450 nm [8] | Absorbance 450 nm [9] | Absorbance 450 nm [10] | Absorbance 450 nm [11] | Substance | further results |
| --- | --- | --- | --- | --- | --- | --- | --- | --- | --- | --- | --- | --- |
| 1.1 | 0.97 | 1.13 | 1.17 | 1.14 | 1.1 | 1.16 | 1.12 | 1.14 | 1.04 | 1.19 | IgG1 isotype control antibody | – |
| 1.08 | 1.11 | 1.12 | 1.07 | 1.13 | 1.15 | 1.14 | 1.13 | 1.13 | 1.03 | 1.14 | IgG4 isotype control antibody | pTrkA counts per second, DRG, NGF stimulated, 10 mg/kg SC (counts per second) [12]: 483000; pTrkA counts per second, DRG, baseline, 10 mg/kg SC (counts per second) [12]: 109000; pTrkA counts per second, brain, NGF stimulated, 10 mg/kg SC (counts per second) [12]: 507000; pTrkA counts per second, brain, baseline, 10 mg/kg SC (counts per second) [12]: 70600; pTrkA counts per second, skin, NGF stimulated, 10 mg/kg SC (counts per second) [12]: 33300; pTrkA counts per second, skin, baseline, 10 mg/kg SC (counts per second) [12]: 14500; pTrkA counts per second, +mAb 1 hr (1 uM), no NGF (counts per second) [13]: 28400; pTrkA counts per second, +mAb 24 hr (1 uM), no NGF (counts per second) [13]: 28700; pTrkA counts per second, NGF + mAb 1 hr (1 uM) (counts per second) [13]: 238000; pTrkA counts per second, NGF + mAb 24 hr (1 uM) (counts per second) [13]: 290000 |
| – | – | – | – | – | – | – | – | – | – | – | rat β-NGF (from UniProt P25427 122-241) (ligand) | pTrkA counts per second, 10 ug/mL NGF alone (mAb A column) (counts per second) [14]: 2.13e+06; pTrkA counts per second, 10 ug/mL NGF alone (mAb B column) (counts per second) [14]: 4.29e+06; pTrkA counts per second, 10 ug/mL NGF alone (mAb C column) (counts per second) [14]: 2.81e+06; pTrkA counts per second, 10 ug/mL NGF alone (mAb D column) (counts per second) [14]: 3.25e+06; pTrkA counts per second, 10 ug/mL NGF alone (mAb E column) (counts per second) [14]: 2.76e+06 |
